T1: full length human MSR1 with a C-terminal Myc tag, on HEK293.Myc.hMSR1 cells (human, UniProt P21757 1-451)
T1 sequence (looked up): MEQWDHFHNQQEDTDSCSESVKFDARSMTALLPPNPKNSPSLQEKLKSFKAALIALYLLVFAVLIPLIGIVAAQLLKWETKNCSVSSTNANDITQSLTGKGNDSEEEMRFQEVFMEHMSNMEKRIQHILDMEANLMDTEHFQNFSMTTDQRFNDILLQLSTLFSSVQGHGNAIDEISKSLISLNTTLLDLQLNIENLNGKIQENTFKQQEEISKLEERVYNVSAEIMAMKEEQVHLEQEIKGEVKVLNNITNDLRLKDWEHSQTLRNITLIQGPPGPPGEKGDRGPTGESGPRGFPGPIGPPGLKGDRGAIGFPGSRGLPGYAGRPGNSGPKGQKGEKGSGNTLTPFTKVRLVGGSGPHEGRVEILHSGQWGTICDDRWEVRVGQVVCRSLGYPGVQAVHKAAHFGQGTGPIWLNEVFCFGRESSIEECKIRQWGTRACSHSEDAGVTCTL

T2: mouse MSR1 on RAW264.7 cells (mouse, UniProt P30204 1-458)
T2 construct: whole, on cells; also called MSR1 positive RAW264.7 cells
T2 sequence (looked up): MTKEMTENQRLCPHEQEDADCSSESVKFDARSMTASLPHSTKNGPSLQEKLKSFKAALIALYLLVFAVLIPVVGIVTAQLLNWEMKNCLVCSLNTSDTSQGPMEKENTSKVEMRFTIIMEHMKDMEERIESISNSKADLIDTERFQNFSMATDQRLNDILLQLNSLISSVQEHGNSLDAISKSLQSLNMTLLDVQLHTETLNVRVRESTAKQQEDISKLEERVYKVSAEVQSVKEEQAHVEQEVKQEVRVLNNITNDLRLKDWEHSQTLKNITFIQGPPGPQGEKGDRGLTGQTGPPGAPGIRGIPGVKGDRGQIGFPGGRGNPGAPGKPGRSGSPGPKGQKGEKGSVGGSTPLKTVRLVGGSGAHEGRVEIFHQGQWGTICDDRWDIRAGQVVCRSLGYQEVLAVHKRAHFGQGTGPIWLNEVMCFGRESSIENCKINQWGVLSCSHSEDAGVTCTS

T3: full length monkey MSR1 on HEK293.mfMSR1 cells (Macaca fascicularis, UniProt A0A2K5UWE2 1-451)
T3 construct: whole, on cells
T3 sequence: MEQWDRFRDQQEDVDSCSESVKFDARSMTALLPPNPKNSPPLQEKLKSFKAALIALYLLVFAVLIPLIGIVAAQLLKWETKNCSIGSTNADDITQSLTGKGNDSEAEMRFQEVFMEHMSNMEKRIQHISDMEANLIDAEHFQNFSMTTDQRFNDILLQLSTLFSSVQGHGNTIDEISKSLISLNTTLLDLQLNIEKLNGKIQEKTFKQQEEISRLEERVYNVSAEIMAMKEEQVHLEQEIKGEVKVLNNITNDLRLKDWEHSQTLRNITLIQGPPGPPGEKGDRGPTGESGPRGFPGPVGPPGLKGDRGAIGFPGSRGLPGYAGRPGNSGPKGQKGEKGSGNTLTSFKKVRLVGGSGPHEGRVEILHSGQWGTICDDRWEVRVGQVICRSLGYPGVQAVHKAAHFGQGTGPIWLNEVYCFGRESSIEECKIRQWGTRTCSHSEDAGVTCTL

B1: H1H27731P-N297Q (antibody, V domains shown)
VH: QLQLQESGPGLVKPSETLSLTCTVSGGSISRISYYWGWIRQPPGKGLEWIGSIYDSGSTYYNPSLKSRVTISIDTSKNQFSLKLSSVTAADTAVYYCVRYSSSSAFAFDYWGQGTLVTVSS
VL: DIQMTQSPSSVSASVGDRVTITCRASQGISSWLAWYQQKPGKAPKLLIYAASSLQSGVPSRFSGSGSGTDFTLTISSLQPEDFATYYCQQANSFPFTFGPGTKVDIKR
notes: human IgG1 Fc with N297Q
B2: H1H21234N-N297Q (antibody, human IgG1, V domains shown)
VH: QVQLQESGPGLVKPSETLSLTCTVTGGSISRNYWSWIRQPPGKGLEWIGYIYYSGSIDYNPSLKSRVTISVDTSKNQFSLKLSSMTAADTAVYYCARDRWNWKYGMDVWGQGTTVIVSS
VL: EIVLTQSPGTLSLSPGERATLSCRASQTVRNNYLAWYHQKPGQAPRLLIYGASSRATGIPDRFSGSGSGTDFTLTISRLEPEDFTVYYCHQYGNSPWTFGQGTKMEIKR
notes: human IgG1 Fc with N297Q point mutation (EU numbering)
B3: H1H27766P2-N297Q (antibody, human IgG1, V domains shown)
VH: EVQLVESGGGLVQPGGSLRLSCAASGFTFSSFAMSWVRQAPGKELEWVSSISGRGGSTYYADSVRGRFTISRDNSKITLYLQMNSLRAEDTAVYYCAKDIVFRYTSSAYWYFDLWGRGTLVTVSS
VL: not shown
notes: human IgG1 Fc with N297Q; also called H1H27766P-N297Q
B4: H1H27734P-N297Q (antibody, human IgG1, V domains shown)
VH: EVQLVESRGGLVQPGGSLRLSCAASGFTFSSYAMSWVRQAPGKGLEWVSAISGSGGSTFYADSVKGRFTISRDNSKNTVYLQMNSLRAEDTAVYYCAKALVLRFLEWLGDYWGQGTLVTVSS
VL: DIQMTQSPSTLSASVGDRVTITCRASQSISSWLAWFQQKPGKAPKLLIYKASSLESGVPSRFSGSGSGTEFTLTISSLQPDDFATYYCQQYKSYWTFGQGTKVEIKR
notes: human IgG1 Fc with N297Q
B5: H1H27761P2-N297Q (antibody, human IgG1, V domains shown)
VH: EVQLVESGGDLVQPGGSLRLSCSASGFTFNIYAMSWVRQAPGKGLEWVSGISGSGGSTYYADSVKGRFTISRDNSKNTLYFQMNSLRVEDTAVYYCAKKISSSSYYYYAMDVWGQGTTVTVSS
VL: not shown
notes: human IgG1 Fc with N297Q; also called H1H27761P-N297Q
B6: H1H27751P-N297Q (antibody, human IgG1, V domains shown)
VH: EVQLVESGGGLVQPGGSLRLSCAASGFTFSNYAMHWVRQAPGKGLEYVSAISSNGGSTYYADSVKGRITISRDNSKNTLYLQMGSLRAEDMAVYYCARGRPYYYYFGMDVWGQGTTVTVSS
VL: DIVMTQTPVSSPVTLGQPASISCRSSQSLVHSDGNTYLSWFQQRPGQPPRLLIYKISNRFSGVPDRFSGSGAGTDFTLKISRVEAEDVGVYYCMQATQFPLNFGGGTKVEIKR
notes: human IgG1 Fc with N297Q
B7: H1H27729P-N297Q (antibody, human IgG1, V domains shown)
VH: QVQLVESGGGLVKPGGSLRLSCAASGFIFSDYYMSWIRQAPGKGLEWVSYISSSGTTIYGDSVKGRFTMSRDNAKNSLYLQMNSLRAEDTAVYYCARNYALFDYWGQGTLVTVSS
VL: DIQMTQSPSSLSASVGDRVTITCQASQDISKYLNWYQQKPGKAPKLLIYYTSNLETGVPSRFSGSGSGTDFTFTISSLQPEDIATYYCHQSDYLPFTFGPGTKVDIKR
notes: human IgG1 Fc with N297Q
B8: H1H27739P-N297Q (antibody, human IgG1, V domains shown)
VH: EVQLVESGGGLVQPGGSLRLSCTASGFTFSSYAMSWVRQAPGKGLEWVSAISGTGSSTYFTDSVKGRFAISRDNSKNTLYLQMNSLRAEDTAVYYCAKDGEWLSTVTLFDYWGQGTLVTVSS
VL: EIVMTQSPATLSVSPGERATLSCRASQSVSSNLAWYQQKPGQAPRLLIYGASTRATGIPARFSGSGSGTDFTLTISSLQSEDFALYYCQQYFIWPPHPTFGPGTKVDIKR
notes: human IgG1 Fc with N297Q
B9: H1H27762P2-N297Q (antibody, human IgG1, V domains shown)
VH: QVQLVQSGAEVKKPGSSVKVSCKASGGTFSRYDISWVRQAPGQGLEWMGGIIPIFGTSNYAQKFQGRVTITTDESTSTVYMELSSLRSEDTAVYYCARGGRYGWFDPWGQGTLVTVSS
VL: not shown
notes: human IgG1 Fc with N297Q; also called H1H27762P-N297Q
B10: H1H27759P2-N297Q (antibody, human IgG1, V domains shown)
VH: EVQLVESGGGFVQPGGSLRLSCAASGFTFSSYAMSWVRQAPGKGLEWVSAISGTGSNTYYADSVKGRFTISRDNSKNTLYLQMNSLRAEDTAVYYCAKDRVTTVTYYFDYWGQGTLVTVSS
VL: not shown
notes: human IgG1 Fc with N297Q; also called H1H27759P-N297Q

target: T1, full length human MSR1 with a …; assay: cell-based or functional assay

Binder	% Inhibition of Dil-Acetylated LDL uptake	% Inhibition of Dil-Oxidized LDL uptake	IC50 of Dil-Acetylated LDL uptake inhibition	IC50 of Dil-Oxidized LDL uptake inhibition
B1	37%	62%	1.8 nM	> 10 nM
B2	34%	52%	1.3 nM	6.1 nM
B3	38%	72%	3.5 nM	3.7 nM
B4	–	22%	–	5.5 nM
B5	29%	43%	> 100 nM	9.5 nM
B6	59%	85%	1.6 nM	2.9 nM
B7	28%	–	1.2 nM	–
B8	–	55%	–	> 100 nM
B9	38%	78%	2.9 nM	4 nM
B10	48%	74%	> 100 nM	> 10 nM

target: T2, mouse MSR1 on RAW264.7 cells; assay: flow cytometry, RAW264.7 cells
Protocol: To block binding to Fc receptors, RAW264.7 cells were incubated for 30 minutes at 4° C. with 500 pg/mL mouse IgG (Jackson ImmunoResearch, Cat #015-000-003) diluted in staining buffer, while B16F10.9 cells remained in staining buffer. […] The signal to noise (S/N) was determined by calculating the ratio of the anti-MSR1 antibodies or the control antibodies MFI to the unstained sample MFI (Table 11).

Binder	MFI	S/N (MFI over unstained MFI)
B1	3510 MFI	1
B2	7050 MFI	3
B3	3810 MFI	1
B4	4780 MFI	1
B5	3840 MFI	1
B6	3820 MFI	1
B7	3480 MFI	1
B8	3270 MFI	1
B9	3520 MFI	1
B10	3290 MFI	1

target: T3, full length monkey MSR1 on …; assay: ECL cell binding, HEK293.mfMSR1 cells, 11 nM
Protocol: (§1) All cells were washed once with 1×PBS with Ca²⁺/Mg²⁺ and counted with a Cellometer™ Auto T4 cell counter (Nexcelom Bioscience). Approximately 1.0×10⁴ cells were seeded separately onto 96-well carbon electrode plates [MULTI-ARRAY high bind plate, Meso Scale Diagnostics] and incubated for 1 hour at 37° C. Non-specific binding sites were then blocked by 2% BSA (w/v) in PBS with Ca²⁺/Mg²⁺ for 1 hour at room temperature. THP-1 cells were pre-incubated for 0.5 hours at room temperature in sample dilution buffer with: 1) 1 mg/mL Fc receptor block reagents to block Fc gamma receptors on THP-1 cell surface [whole molecule human IgG (Jackson Immunoresearch, Cat #009-000-003) for wells being tested with anti-MSR1-mFc antibodies or 2) whole molecule mlgG (Jackson Immunoresearch, Cat #015-000-003) for wells being tested with anti-MSR1-hFc antibodies. Antibody binding on HEK293.Myc.hMSR1, HEK293.mfMSR1 and HEK293 cells was tested without Fc receptor block reagents. […] Plates were then washed to remove unbound antibodies an AquaMax2000 plate washer with a cell washing head (MDS Analytical Technologies). […] Plates were washed and developed with Read Buffer (Meso Scale Diagnostics, Cat # R92TD-2) according to manufacturer's recommended procedure and luminescent signals were recorded with a SECTOR Imager 600 (Meso Scale Diagnostics). Luminescence intensity, measured in relative light units (RLU), was recorded to indicate the binding intensity of each antibody at the range of concentrations.

Binder	ratio of binding signal (RLU) to isotype control
B1	43 fold
B2	35 fold
B3	13 fold
B4	28 fold
B5	15 fold
B6	49 fold
B7	6 fold
B8	20 fold
B9	25 fold
B10	25 fold

target: T1, full length human MSR1 with a …; assay: ECL cell binding, HEK293.Myc.hMSR1 cells, 11 nM
Protocol: as §1

Binder	ratio of binding signal (RLU) to isotype control
B1	48 fold
B2	43 fold
B3	20 fold
B4	40 fold
B5	23 fold
B6	63 fold
B7	17 fold
B8	22 fold
B9	33 fold
B10	23 fold
